Test results: patent publication US20170143843A1 (Genentech, published 2017)
Substitutions are numbered along the chain they refer to. In names and notes the source's numbering stands. Each block holds one binder with its values, some of them ahead of it.

Key:
human factor D [1] = biological target: T1, human factor D (human, UniProt P00746 26-253); test: SPR Biacore T200, Fab captured by anti-huFab, human fD injected, 25 C
T1 construct: also called fD
Protocol: Antibody Fab fragments were immobilized on a Series S CM5 sensor chip using the anti-huFab capture kit (GE healthcare Cat. #28-9583-25) following a protocol described by the manufacturer. Kinetics of binding were calculated from sensorgrams recorded for injection of 60 μL aliquots of solutions of human factor D varied in concentration from 0.39 nM to 25 nM in 2-fold increments. The flow rate was 30 μL/minute, the running buffer was HBS-P+, the temperature of analysis was 25° C., real-time reference cell subtraction was employed, and dissociation following factor D injection was followed for 10 minutes. After subtraction of the sensorgram observed for injection of running buffer, data were analyzed according to a 1:1 model using BiaEval software v4.1 (GE Healthcare) to extract the kinetics and affinity constants.

human factor D [2] = biological target: T1, human factor D; test: SPR total binding to fD over time; Fab 100 mg/mL in PBS, 37 C, 10 weeks (FIG. 2B)
human factor D [3] = biological target: T1, human factor D; test: SPR total binding to fD over time; Fab 10 mg/mL in pH 5.5 buffer (FIG. 2A), one month
human factor D [4] = biological target: T1, human factor D; test: SPR, captured Fab, fD injected

T1 sequence (P00746 26-253 limits assumed): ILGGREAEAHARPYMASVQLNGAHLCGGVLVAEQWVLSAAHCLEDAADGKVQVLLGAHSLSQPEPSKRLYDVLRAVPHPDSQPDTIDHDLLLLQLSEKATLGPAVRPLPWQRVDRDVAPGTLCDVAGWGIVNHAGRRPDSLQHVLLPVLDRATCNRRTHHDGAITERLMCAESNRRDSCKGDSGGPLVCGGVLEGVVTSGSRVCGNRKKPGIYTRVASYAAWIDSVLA

Kd (human factor D [1]): ≤ 0.01 nM
loss in binding (human factor D [2]): ~20%
loss in binding (human factor D [3]): ~40%
B1: AFD.v6 (TM; VL-D30E:D31S VH-D62E) (Fab, V domains shown)
VH: EVQLVQSGPELKKPGASVKVSCKASGYTFTNYGMNWVRQAPGQGLEWMGWINTYTGETTYAEDFKGRFVFSLDTSVSTAYLQISSLKAEDTAVYYCEREGGVNNWGQGTLVTVSS
VL: DIQVTQSPSSLSASVGDRVTITCITSTDIESDMNWYQQKPGKVPKLLISGGNTLRPGVPSRFSGSGSGTDFTLTISSLQPEDVATYYCLQSDSLPYTFGQGTKVEIKR
notes: Fab variant of aFD.WT; also called TM (AFD.v6)

fold decrease in affinity against SIESD.N103S (AFD.v14) (human factor D [4]): 4 fold
Kd (human factor D [1]): 0.102 nM
B2: AFD.v15 (SIESD.N103S.D92E; VL-D28S:D30E:D31S:D92E VH-D62E:N103S) (Fab, V domains shown)
VH: B1 VH with N103S
VL: B1 VL with D28S, D92E
notes: Fab variant of aFD.WT
